Results taken from patent US20100292181.

What was measured:
[1] = target: GST-tagged recombinant human cofilin
[2] = target: T1, Synthetic peptide S3 conjugated to a penetratin peptide
T1 chain: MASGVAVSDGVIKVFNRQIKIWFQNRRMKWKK

Sequence of GST-tagged recombinant human cofilin (chain, as listed by the source): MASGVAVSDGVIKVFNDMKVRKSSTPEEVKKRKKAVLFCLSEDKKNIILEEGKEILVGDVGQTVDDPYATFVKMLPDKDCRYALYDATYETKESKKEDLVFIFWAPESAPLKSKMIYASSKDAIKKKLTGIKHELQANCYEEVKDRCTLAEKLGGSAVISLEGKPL

B1: purified LIMK1 (protein)
chain: GSSARQKPVLRSCSIDRSPGAGSLGSPASQRKDLGRSESLRVVCRPHRIFRPSDLIHGEVLGKGCFGQAIKVTHRETGEVMVMKELIRFDEETQRTFLKEVKVMRCLEHPNVLKFIGVLYKDKRLNFITEYIKGGTLRGIIKSMDSQYPWSQRVSFAKDIASGMAYLHSMNIIHRDLNSHNCLVRENKNVVVADFGLARLMVDEKTQPEGLRSLKKPDRKKRYTVVGNPYWMAPEMINGRSYDEKVDVFSFGIVLCEIIGRVNADPDYLPRTMDFGLNVRGFLDRYCPPNCPPSFFPITVRCCDLDPEKRPSFVKLEHWLETLRMHLAGHLPLGPQLEQLDRGFWETYRRGESG
cofilin phosphorylation in the in vitro LIMK1 kinase assay (western blot for phospho-cofilin ser3) [1]: the phosphorylation of cofilin by LIMK1
cofilin phosphorylation in the in vitro LIMK1 kinase assay (western blot for phospho-cofilin ser3) [2]: S3 inhibited cofilin phosphorylation by LIMK1
